Reference: patent US20250333497A1 (University of California, published 2025)
Residue numbers refer to the chain shown, from its start.

T1: Full length PLXDC1 (PLXDC1-Full) (Homo sapiens (Human), UniProt Q8IUK5 19-500)
T1 construct: also called full PLXDC1 protein
T1 sequence: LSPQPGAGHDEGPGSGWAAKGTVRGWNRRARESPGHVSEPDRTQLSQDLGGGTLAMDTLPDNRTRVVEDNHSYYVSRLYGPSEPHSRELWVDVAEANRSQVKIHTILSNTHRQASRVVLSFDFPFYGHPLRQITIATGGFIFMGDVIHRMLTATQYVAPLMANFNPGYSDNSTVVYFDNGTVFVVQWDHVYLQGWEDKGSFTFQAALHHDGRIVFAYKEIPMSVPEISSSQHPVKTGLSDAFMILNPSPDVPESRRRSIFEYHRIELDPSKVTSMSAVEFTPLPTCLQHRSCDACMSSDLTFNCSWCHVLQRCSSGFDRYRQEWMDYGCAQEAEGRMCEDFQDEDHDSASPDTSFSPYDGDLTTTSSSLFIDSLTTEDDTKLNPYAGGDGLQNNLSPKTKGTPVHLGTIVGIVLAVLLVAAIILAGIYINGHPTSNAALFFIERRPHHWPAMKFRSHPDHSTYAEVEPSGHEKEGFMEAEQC

B1: A001 (antibody, V domains shown)
VH: EVQLLESGGGLVQPGGSLRLSCAASGFTFSSYAMSWVRQAPGKGLEWVSTIYASGATTYYADSVKGRFTISRDNSKNTLYLQMNSLRAEDTAVYYCARLKLYHAAFDIWGQGTLVTVSS
VL: DIQMTQSPSSLSASVGDRVTITCRASQDISSYLNWYQQKPGKAPKLLIYTASSLQSGVPSRFSGSGSGTDFTLTISSLQPEDFATYYCQQSYSYPLTFGQGTKVEIK
notes: VH/VL only; also called 3-C11
B2: A002 (antibody, V domains shown)
VH: EVQLLESGGGLVQPGGSLRLSCAASGFTFKNYAMSWVRQAPGKGLEWVSAISASGGYTYYADSVKGRFTISRDNSKNTLYLQMNSLRAEDTAVYYCARGRWGAFDYWGQGTLVTVSS
VL: QSVLTQPPSVSGAPGQRVTISCTGSSSNIGSGYDVHWYQQLPGTAPKLLIYGNRNRPSGVPDRFSGSKSGTSASLAITGLQAEDEADYYCQSYDSSLKTWVFGGGTKLTVL
notes: VH/VL only; also called 4-A8
B3: A003 (antibody, V domains shown)
VH: QVQLVESGGGVVQPGRSLRLSCAASGFTFRDYGMHWVRQAPGKGLEWVAVISYHGRNEYYANSVKGRFTISRDNSKNTLYLQMNSLRAEDTAVYYCARGAYGDDFDVWGQGTLVTVSS
VL: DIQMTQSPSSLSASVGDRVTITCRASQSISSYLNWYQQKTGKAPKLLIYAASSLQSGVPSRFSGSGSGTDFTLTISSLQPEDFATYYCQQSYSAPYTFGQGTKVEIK
notes: VH/VL only; also called 5-E2
B4: A004 (antibody, V domains shown)
VH: B3 VH with R30S, H54E, R56S, N62D, A100S, Y101E, D103S, D104G
VL: B1 VL with D28R, S31N, T50A, Y94P, L96Y
notes: VH/VL only; also called 2-H2
B5: A005 (antibody, V domains shown)
VH: B3 VH with R30S, H54D, R56S, N57R, E58K, A100S, G102S, D104G
VL: B1 VL with D28S, S31R, P40T, T50G, Y94T, L96Y
notes: VH/VL only; also called 3-G6
B6: A006 (antibody, V domains shown)
VH: QVQLVQSGAEVKKPGSSVKVSCKASGGTFSTEYISWVRQAPGQGLEWMGRIIPVLGITNYAQKFQGRVTITADESTSTAYMELSSLRSEDTAVYYCARHLGPPYLVTYSHGFDVWGQGTLVTVSS
VL: EIVMTQSPATLSVSPGERATLSCRASQSLGTNLAWYQQKPGQAPRLLIYGASTRATGIPARFSGSGSGTEFTLTISSLQSEDFAVYYCQQYYEAPPTFGQGTKVEIK
notes: VH/VL only; also called 3-G7
B7: A007 (antibody, V domains shown)
VH: EVQLLESGGGLVQPGGSLRLSCAASGFTFRNYAMSWVRQAPGKGLEWVSSISGGGINTYYADSVKGRFTISRDNSKNTLYLQMNSLRAEDTAVYYCARVRSYSGPGYFDYWGQGTLVTVSS
VL: B6 VL with E17D, Q27R, L29V, G30S, T31S, E93N, A94W, P96L
notes: VH/VL only; also called 8-A7

Experiments:
[1] = biological target: T1, Full length PLXDC1 (PLXDC1-Full); test: staining of transfected cells (FIG. 3-4)
From the text: (§1) Both full length PLXDC1 and Domain A deleted PLXDC1 (PLXDC1-dA) have an epitope tag on the N-terminus.

[2] = biological target: T2, domain A-deleted PLXDC1 (PLXDC1-dA) (Homo sapiens (Human), UniProt Q8IUK5 128-500); test: staining of transfected cells (FIG. 3C-H)
T2 construct: also called mutant with Domain A deleted
From the text: as §1

[3] = biological target: T2, domain A-deleted PLXDC1 (PLXDC1-dA); test: staining of transfected cells (FIG. 4A-H)
From the text: as §1

Row | Binder | binding result [1] | binding result [2] | binding result [3]
1 | B1 | binds | no binding | –
2 | B2 | binds | no binding | –
3 | B3 | binds | no binding | –
4 | B4 | binds | – | no binding
5 | B5 | binds | – | no binding
6 | B6 | binds | – | no binding
7 | B7 | binds | – | no binding
